According to paper PMC6557989, “The Molecular Basis of Human IgG-Mediated Enhancement of C4b-Binding Protein Recruitment to Group A Streptococcus” (Frontiers in Immunology, 2019):

Target: T1, Protein H (Streptococcus pyogenes (strain AP1), ^125I-labelled in the plate binding assay; Alexa-488 succinimidyl ester-labelled in thermophoresis; unlabelled elsewhere)
T1 construct: Protein H, surface protein of the M protein family of Streptococcus pyogenes AP1; recombinant; theoretical mass of the monomer 42 kDa; written as the single chain because its self-association is itself measured; also called ^125I-Protein H; source: E. coli, expressed and purified (previously described protocols)
T1 chain: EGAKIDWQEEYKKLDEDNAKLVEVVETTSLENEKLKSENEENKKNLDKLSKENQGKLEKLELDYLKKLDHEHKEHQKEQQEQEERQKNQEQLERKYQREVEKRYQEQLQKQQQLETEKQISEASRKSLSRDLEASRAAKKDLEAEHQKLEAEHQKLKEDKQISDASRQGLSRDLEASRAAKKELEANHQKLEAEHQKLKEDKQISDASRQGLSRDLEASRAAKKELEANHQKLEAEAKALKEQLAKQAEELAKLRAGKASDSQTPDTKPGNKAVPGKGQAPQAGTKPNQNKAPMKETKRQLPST
Test: native gel or EMSA; native horizontal agarose gel, 75 mM sodium barbital pH 8.6, Coomassie blue; two proteins pre-incubated in PBS 1 h at 37°C (ratios as C4BP:IgG:Protein H 1:10:10)
Conditions: both partners purified

B1: Denosumab (monoclonal human IgG2) (antibody, V domains shown)
VH: EVQLLESGGGLVQPGGSLRLSCAASGFTFSSYAMSWVRQAPGKGLEWVSGITGSGGSTYYADSVKGRFTISRDNSKNTLYLQMNSLRAEDTAVYYCAKDPGTTVIMSWFDPWGQGTLVTVSS
VL: EIVLTQSPGTLSLSPGERATLSCRASQSVRGRYLAWYQQKPGQAPRLLIYGASSRATGIPDRFSGSGSGTDFTLTISRLEPEDFAVFYCQQYGSSPRTFGQGTKVEIK
notes: constant region of the human IgG2 heavy chain; it is here the ligand of Protein H through its Fc; Recombinantly expressed drug antibody; also called hu-IgG2; source: bought: Amgen
  binding result: binds
